In the supplement of paper PMC10065799, “High-throughput profiling of sequence recognition by tyrosine kinases and SH2 domains using bacterial peptide display” (eLife, 2023):

Legend:
c-Src SH2 = test: SH2 binding enrichment of the phosphorylated peptide, bacterial display (enrichment ratio); higher = better substrate or ligand; peptides without Tyr show the background
Grb2 SH2 = Grb2 SH2 (UniProt P62993); test: as above
SHP2-C SH2 = test: as above
Fer (mouse) = test: phosphorylation enrichment, bacterial display (enrichment ratio); higher = better substrate or ligand; peptides without Tyr show the background
FGFR3 = FGFR3 (UniProt P22607); test: as above
EPHB1 = EPHB1 (UniProt P54762); test: as above
MERTK = MERTK (UniProt Q12866); test: as above
Jak2 = Jak2 (UniProt O60674); test: as above
Fes = Fes (UniProt P07332); test: as above
AncSZ = test: as above
Hck = Hck (UniProt P08631); test: as above
c-Abl (mouse) = test: as above
c-Src = test: as above
EPHB2 = EPHB2 (UniProt P29323); test: as above
Fyn = Fyn (UniProt P06241); test: as above
FGFR1 = FGFR1 (UniProt P11362); test: as above
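For SH2 binding enrichment of the phosphorylated peptide, bacterial display in this document: peptide library displayed on the E. coli surface as eCPX fusions, selected cells deep-sequenced, score is each peptide's frequency after selection divided by its frequency in the input.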
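For phosphorylation enrichment, bacterial display in this document: 11-residue human phosphosite peptides and single-mutation variants displayed on the E. coli surface, counted by deep sequencing, each peptide's frequency after selection divided by its frequency in the unselected input library; frequency after pTyr selection over input frequency; kinase dosed for 20-30% of maximal phosphorylation in three min.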

Sequence of FGFR3 (P22607 whole entry, looked up): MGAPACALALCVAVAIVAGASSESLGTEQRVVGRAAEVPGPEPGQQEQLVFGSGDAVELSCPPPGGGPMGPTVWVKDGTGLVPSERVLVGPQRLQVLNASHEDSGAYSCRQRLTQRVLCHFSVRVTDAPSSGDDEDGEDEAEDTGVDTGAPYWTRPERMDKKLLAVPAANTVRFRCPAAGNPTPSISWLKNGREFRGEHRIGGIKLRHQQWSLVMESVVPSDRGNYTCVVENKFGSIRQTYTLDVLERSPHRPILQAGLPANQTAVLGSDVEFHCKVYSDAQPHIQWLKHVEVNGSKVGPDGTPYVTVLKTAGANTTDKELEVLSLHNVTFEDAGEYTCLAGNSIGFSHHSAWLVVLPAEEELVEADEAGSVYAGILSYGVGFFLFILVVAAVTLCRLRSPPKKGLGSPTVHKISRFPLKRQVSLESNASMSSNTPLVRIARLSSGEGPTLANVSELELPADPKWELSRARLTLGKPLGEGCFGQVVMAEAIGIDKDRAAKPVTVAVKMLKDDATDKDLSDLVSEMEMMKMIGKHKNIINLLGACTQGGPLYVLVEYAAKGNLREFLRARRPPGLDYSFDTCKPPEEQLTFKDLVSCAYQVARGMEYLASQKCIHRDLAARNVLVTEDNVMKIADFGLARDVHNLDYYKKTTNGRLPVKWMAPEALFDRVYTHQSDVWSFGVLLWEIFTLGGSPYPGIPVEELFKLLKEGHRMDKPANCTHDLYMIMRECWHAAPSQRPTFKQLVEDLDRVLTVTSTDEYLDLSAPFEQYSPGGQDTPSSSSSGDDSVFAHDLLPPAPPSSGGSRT
Sequence of EPHB1 (P54762 whole entry, looked up): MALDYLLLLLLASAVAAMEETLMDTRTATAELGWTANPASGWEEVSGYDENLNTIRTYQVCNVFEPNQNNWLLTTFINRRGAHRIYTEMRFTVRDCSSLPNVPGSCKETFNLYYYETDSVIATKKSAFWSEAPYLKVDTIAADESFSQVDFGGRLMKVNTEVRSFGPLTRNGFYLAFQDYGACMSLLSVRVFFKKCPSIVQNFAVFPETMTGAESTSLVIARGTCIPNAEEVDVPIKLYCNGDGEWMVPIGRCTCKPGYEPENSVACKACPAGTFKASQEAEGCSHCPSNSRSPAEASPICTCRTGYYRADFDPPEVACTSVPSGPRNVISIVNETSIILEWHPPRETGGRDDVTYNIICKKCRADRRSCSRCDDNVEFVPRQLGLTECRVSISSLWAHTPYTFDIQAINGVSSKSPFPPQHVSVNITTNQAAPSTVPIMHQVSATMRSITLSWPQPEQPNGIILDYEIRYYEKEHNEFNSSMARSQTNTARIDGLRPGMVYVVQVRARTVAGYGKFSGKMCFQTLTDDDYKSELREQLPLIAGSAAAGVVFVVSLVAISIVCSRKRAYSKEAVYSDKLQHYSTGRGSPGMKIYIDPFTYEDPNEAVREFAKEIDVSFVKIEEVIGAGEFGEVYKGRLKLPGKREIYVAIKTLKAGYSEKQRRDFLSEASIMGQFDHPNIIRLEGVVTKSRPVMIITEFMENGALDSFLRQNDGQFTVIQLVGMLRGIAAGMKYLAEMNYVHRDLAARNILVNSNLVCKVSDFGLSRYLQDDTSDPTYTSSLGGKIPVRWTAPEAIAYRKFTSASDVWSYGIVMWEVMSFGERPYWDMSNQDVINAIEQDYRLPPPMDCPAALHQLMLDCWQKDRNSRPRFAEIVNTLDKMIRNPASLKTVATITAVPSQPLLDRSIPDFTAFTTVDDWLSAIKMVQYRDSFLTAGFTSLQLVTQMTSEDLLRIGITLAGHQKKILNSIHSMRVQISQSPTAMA
Sequence of Fyn (P06241 whole entry, looked up): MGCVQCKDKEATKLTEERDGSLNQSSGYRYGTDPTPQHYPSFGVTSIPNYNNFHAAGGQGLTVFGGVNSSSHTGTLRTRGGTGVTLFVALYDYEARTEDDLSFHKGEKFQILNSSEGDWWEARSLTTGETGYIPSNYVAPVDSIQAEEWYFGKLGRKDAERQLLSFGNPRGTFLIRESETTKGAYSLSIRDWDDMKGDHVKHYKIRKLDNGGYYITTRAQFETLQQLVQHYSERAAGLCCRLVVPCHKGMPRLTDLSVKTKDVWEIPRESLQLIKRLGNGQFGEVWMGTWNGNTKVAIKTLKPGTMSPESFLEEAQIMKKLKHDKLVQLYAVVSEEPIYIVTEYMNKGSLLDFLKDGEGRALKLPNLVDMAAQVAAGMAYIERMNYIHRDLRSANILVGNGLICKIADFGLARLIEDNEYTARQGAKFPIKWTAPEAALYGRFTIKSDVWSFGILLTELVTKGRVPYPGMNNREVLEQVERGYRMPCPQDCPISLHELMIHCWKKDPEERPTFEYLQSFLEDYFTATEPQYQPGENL
Sequence of Fes (P07332 whole entry, looked up): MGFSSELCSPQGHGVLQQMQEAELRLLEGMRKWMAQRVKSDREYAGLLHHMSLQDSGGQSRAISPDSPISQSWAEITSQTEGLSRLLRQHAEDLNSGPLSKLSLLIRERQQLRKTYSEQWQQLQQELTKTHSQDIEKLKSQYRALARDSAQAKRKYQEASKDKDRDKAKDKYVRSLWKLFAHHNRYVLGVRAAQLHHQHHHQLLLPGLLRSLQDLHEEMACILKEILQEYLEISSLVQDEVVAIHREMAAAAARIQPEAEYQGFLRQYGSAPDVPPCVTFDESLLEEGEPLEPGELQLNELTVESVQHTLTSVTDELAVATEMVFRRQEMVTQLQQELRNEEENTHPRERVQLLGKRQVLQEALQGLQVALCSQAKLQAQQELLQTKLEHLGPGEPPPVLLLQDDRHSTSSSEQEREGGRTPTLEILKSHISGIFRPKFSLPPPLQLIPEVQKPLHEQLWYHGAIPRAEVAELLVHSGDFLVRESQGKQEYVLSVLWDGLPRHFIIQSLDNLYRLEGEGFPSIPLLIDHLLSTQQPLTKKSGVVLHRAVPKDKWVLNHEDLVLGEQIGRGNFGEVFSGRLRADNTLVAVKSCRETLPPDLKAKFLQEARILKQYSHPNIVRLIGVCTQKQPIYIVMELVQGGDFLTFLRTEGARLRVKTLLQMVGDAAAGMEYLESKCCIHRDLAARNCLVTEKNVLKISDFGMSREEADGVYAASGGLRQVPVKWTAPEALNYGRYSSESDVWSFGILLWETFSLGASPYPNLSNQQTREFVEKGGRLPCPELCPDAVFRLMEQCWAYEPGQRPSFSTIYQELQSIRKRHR
Sequence of Jak2 (O60674 whole entry, looked up): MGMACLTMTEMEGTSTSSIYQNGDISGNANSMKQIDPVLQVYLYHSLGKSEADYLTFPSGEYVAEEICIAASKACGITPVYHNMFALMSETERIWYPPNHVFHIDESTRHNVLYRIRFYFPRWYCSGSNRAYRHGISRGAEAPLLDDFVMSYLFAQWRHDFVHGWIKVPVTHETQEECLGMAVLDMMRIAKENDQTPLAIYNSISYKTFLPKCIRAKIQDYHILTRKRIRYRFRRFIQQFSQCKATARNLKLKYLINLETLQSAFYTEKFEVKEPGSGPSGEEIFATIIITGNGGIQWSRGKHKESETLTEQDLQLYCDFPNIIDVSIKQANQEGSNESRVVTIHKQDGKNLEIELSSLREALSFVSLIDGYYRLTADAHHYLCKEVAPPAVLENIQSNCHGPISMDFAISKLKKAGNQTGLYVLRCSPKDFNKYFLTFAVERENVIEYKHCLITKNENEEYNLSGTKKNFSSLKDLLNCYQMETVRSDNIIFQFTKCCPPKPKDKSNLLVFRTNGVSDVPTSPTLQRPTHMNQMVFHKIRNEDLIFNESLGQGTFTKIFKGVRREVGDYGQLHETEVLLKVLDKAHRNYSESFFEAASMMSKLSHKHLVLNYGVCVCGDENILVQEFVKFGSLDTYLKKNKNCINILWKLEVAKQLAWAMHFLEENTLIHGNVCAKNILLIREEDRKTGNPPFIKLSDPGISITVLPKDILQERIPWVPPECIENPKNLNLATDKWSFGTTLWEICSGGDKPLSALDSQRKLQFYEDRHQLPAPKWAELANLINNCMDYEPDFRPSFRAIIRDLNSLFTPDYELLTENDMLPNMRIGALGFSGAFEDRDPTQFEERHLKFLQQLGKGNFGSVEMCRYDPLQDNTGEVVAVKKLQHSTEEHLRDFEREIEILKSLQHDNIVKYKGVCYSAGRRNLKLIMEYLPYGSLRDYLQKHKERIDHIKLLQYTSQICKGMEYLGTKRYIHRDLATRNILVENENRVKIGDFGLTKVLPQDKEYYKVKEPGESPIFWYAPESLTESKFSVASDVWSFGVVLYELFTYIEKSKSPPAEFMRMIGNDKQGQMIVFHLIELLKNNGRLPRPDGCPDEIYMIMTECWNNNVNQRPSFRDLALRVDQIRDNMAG
Sequence of FGFR1 (P11362 whole entry, looked up, the tested form may be a part): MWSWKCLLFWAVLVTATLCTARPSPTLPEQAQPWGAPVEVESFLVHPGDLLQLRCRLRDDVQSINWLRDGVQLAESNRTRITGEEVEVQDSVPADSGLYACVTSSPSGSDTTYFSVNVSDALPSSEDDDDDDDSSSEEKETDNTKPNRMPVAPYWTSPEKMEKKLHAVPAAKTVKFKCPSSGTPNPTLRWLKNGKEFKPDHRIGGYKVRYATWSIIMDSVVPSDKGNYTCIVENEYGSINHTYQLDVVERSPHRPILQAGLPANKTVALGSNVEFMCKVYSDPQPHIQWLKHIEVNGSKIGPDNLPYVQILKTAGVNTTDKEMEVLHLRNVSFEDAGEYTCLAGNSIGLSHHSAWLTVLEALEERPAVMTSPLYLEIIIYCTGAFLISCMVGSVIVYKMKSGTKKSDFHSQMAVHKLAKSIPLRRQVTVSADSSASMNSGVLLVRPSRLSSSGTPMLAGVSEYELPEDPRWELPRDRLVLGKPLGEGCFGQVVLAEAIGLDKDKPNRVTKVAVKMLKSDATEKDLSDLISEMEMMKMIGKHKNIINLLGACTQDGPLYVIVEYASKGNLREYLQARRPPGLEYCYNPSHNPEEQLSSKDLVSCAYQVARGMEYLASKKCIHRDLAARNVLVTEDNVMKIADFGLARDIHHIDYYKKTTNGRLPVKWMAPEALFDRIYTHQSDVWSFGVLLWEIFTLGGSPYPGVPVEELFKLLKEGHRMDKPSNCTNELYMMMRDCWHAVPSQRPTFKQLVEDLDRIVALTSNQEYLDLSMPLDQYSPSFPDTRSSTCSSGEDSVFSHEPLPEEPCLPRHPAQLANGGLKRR

Row | Sequence | SH2 binding enrichment (c-Src SH2) | SH2 binding enrichment (Grb2 SH2) | SH2 binding enrichment (SHP2-C SH2) | phosphorylation enrichment (Fer (mouse)) | phosphorylation enrichment (FGFR3) | phosphorylation enrichment (EPHB1) | phosphorylation enrichment (MERTK) | phosphorylation enrichment (Jak2) | phosphorylation enrichment (Fes) | phosphorylation enrichment (AncSZ) | phosphorylation enrichment (Hck) | phosphorylation enrichment (c-Abl (mouse)) | phosphorylation enrichment (c-Src) | phosphorylation enrichment (EPHB2) | phosphorylation enrichment (Fyn) | phosphorylation enrichment (FGFR1)
1 | TLSGTYQFIIA [FOXL2_Y81_I80T_YF] | 1.11 | 0.968 | 1.13 | 1.44 | 1.9 | 1.31 | 2.89 | 0.732 | 1.05 | 1.27 | 1.34 | 0.611 | 0.892 | 0.924 | 0.814 | 2.22
2 | YSTPPYLLEAA [BRIP1_Y921_S919P] | 1.08 | 0.862 | 0.811 | 1.09 | 0.935 | 0.664 | 3.63 | 1.04 | 1.17 | 1.77 | 1.61 | 1.8 | 1.6 | 0.711 | 1.56 | 1.16
3 | EGVPLYESATT [DCC_Y809] | 0.57 | 0.731 | 0.489 | 7.75 | 0.775 | 4.19 | 0.638 | 0.988 | 1.07 | 1.12 | 2.05 | 0.831 | 1.14 | 4.87 | 1.09 | 0.475
4 | LTAEVYFPSIK [C5orf64_Y60] | 0.453 | 0.763 | 0.708 | 0.963 | 1.88 | 0.966 | 0.648 | 0.996 | 2.04 | 1.78 | 1.06 | 1.64 | 0.75 | 0.906 | 1.02 | 0.866
5 | ITSLLYHVVGW [GBA_Y412_N409S] | 0.959 | 1.14 | 1.22 | 2.94 | 5 | 5.12 | 7.37 | 2.57 | 1.31 | 1.32 | 4.74 | 2 | 3.6 | 2.99 | 3.16 | 5.64
6 | SHNKFYMLVAH [MFSD8_Y134_R139H_YF] | 0.978 | 1.25 | 1.28 | 0.791 | 0.99 | 0.865 | 0.583 | 1.18 | 1.35 | 1.42 | 0.695 | 0.922 | 0.447 | 0.668 | 0.554 | 0.652
7 | WGLRSYFETSK [MAGED2_Y448_YF] | 0.882 | 1.08 | 1.53 | 0.42 | 0.645 | 0.553 | 0.385 | 1.04 | 1.08 | 0.967 | 0.489 | 0.517 | 0.32 | 0.594 | 0.526 | 0.536
8 | IKGNMYYENSY [EGFR_Y112_R108K] | 4.57 | 6.83 | 0.713 | 0.609 | 0.641 | 0.469 | 0.946 | 0.591 | 0.874 | 0.746 | 0.462 | 0.632 | 0.54 | 0.583 | 0.503 | 0.535
9 | HSFQCYGRNEA [ENTPD3_Y262] | 0.529 | 0.945 | 0.82 | 0.759 | 1.18 | 0.875 | 0.585 | 0.594 | 1.28 | 1.23 | 0.797 | 0.736 | 0.417 | 1.04 | 0.711 | 0.761

Second part, led by results:

Row | SH2 binding enrichment (c-Src SH2) | SH2 binding enrichment (Grb2 SH2) | SH2 binding enrichment (SHP2-C SH2) | Sequence | phosphorylation enrichment (Fer (mouse)) | phosphorylation enrichment (FGFR3) | phosphorylation enrichment (EPHB1) | phosphorylation enrichment (MERTK) | phosphorylation enrichment (Jak2) | phosphorylation enrichment (Fes) | phosphorylation enrichment (AncSZ) | phosphorylation enrichment (Hck) | phosphorylation enrichment (c-Abl (mouse)) | phosphorylation enrichment (c-Src) | phosphorylation enrichment (EPHB2) | phosphorylation enrichment (Fyn) | phosphorylation enrichment (FGFR1)
10 | 5.74 | 1.33 | 1.56 | NTGYYYDLYGG [PTPN11_Y63_D61Y] | 3.4 | 11.3 | 11.3 | 8.78 | 4.73 | 1.25 | 1.73 | 6.15 | 0.971 | 4.67 | 10.6 | 5.76 | 13.9
11 | 0.414 | 0.774 | 0.796 | EEALFYLTRVE [SET_Y119_H118Y_YF] | 0.835 | 1.05 | 0.967 | 0.472 | 1.61 | 1.67 | 1.43 | 0.68 | 1.03 | 0.557 | 0.828 | 0.58 | 0.599
12 | 0.658 | 0.96 | 0.854 | QSKGIYFVQLE [MGAT4B_Y262_YF] | 0.713 | 1.41 | 0.972 | 2.38 | 1.88 | 1.71 | 1.51 | 0.936 | 1.63 | 1.54 | 2.44 | 1.1 | 1.09
13 | 1.07 | 1.09 | 1.07 | QGIYGYHHHMQ [UFSP2_Y287_Y290H] | 10.9 | 0.653 | 2.34 | 9.93 | 0.598 | 0.923 | 0.932 | 9.07 | 4.62 | 7.86 | 4.59 | 9.98 | 0.613
14 | 0.524 | 0.804 | 0.555 | PGVDIYVSPNM [PADI3_Y51_I52V] | 0.708 | 0.781 | 1.17 | 0.629 | 1.24 | 1.71 | 1.37 | 2.76 | 2.3 | 0.885 | 1.46 | 1.52 | 0.809
15 | 0.483 | 0.761 | 0.608 | TLNTNYHLPPS [MT-ATP8_Y33_M28T] | 0.372 | 1.69 | 1.37 | 0.57 | 0.485 | 0.587 | 0.698 | 0.343 | 0.655 | 0.403 | 0.451 | 0.47 | 2.51
16 | 0.436 | 0.661 | 0.616 | TDISLYPSGGT [TENM4_Y399_V396I] | 0.39 | 0.536 | 0.46 | 0.394 | 0.657 | 0.84 | 0.637 | 0.398 | 0.528 | 0.391 | 0.632 | 0.414 | 0.457
